Target: wildtype S. pyogenes Cas9 (S. pyogenes) (UniProt Q99ZW2)
Experiment: cell-based or functional assay

Chain of UniProt Q99ZW2 (Q99ZW2 whole entry): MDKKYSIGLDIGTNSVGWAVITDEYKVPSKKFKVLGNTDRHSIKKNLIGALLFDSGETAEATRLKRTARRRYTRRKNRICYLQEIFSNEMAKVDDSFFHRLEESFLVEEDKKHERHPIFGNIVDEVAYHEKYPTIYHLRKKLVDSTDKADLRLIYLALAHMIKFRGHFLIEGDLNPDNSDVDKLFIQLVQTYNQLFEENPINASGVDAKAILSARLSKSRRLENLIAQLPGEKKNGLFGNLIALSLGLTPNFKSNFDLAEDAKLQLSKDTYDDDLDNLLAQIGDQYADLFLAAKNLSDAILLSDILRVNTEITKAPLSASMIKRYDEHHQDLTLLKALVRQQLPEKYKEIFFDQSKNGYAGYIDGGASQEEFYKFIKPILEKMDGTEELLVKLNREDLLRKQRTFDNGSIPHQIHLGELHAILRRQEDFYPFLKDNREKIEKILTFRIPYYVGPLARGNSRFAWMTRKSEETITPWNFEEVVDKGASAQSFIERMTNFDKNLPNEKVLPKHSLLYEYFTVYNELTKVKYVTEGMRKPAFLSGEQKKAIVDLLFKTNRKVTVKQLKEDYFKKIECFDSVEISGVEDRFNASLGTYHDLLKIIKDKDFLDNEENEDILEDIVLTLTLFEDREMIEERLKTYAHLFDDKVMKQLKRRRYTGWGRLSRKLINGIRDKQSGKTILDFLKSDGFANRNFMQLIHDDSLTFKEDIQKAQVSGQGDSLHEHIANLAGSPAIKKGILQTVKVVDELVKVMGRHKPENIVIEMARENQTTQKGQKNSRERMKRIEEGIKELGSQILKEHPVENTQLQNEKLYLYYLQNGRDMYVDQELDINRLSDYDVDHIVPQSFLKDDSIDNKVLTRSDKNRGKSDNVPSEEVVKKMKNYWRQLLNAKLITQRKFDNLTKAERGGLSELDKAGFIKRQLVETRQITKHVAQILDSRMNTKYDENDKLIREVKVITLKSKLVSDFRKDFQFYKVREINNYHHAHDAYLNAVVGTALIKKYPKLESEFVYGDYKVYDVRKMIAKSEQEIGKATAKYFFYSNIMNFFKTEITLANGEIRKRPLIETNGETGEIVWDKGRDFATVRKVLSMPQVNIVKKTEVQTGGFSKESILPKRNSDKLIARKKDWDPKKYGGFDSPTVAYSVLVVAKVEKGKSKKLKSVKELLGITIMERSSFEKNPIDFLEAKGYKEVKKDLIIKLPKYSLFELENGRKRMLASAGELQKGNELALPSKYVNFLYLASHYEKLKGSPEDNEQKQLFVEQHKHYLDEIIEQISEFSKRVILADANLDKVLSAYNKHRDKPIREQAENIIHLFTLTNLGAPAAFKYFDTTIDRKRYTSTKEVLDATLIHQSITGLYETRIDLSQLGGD

## AcrIIA2-Cdt1 fusion protein
  HDR (GFP correction) in RPE1 reporter cells deficient of p53, AcrIIA2-Cdt1 protein co-transfected with WT CRISPR-Cas9 RNP: 2 fold
  HDR (GFP correction) in RPE1 reporter cells, AcrIIA2-Cdt1 protein co-transfected with WT CRISPR-Cas9 RNP: 3 fold

Reference: patent US20230304047A1
